Changes are numbered by the printed parent chain.
T1: Human CD228 protein (human, UniProt P08582 20-708, limits assumed)
T1 construct: Recombinant protein made in CHO cells, purified over a Ni column; The printed entry begins with the leader (MRGPSG...) and ends with ten His; also called hCD228; CD228-His protein
T1 sequence: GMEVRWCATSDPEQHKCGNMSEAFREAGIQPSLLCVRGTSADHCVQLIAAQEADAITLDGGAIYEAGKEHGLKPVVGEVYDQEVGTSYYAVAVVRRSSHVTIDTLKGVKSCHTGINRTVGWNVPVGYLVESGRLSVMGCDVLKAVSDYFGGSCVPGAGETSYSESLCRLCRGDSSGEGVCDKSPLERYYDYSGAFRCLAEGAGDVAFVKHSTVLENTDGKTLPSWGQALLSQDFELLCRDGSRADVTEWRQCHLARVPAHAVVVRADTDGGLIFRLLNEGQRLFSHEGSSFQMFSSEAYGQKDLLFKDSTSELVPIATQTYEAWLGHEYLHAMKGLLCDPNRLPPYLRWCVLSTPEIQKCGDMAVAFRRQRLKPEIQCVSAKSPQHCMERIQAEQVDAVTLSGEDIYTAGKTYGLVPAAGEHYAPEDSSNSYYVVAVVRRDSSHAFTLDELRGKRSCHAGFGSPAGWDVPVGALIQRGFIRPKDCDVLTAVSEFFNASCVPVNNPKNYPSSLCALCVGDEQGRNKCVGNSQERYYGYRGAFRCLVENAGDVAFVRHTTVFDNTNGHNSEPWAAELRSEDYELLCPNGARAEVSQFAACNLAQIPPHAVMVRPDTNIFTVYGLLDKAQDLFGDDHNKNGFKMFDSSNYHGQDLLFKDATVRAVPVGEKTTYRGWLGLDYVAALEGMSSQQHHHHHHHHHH

T2: Mouse CD228 protein (mouse, UniProt Q9R0R1 20-708, limits assumed)
T2 construct: Recombinant His-tagged protein from CHO cells
T2 chain: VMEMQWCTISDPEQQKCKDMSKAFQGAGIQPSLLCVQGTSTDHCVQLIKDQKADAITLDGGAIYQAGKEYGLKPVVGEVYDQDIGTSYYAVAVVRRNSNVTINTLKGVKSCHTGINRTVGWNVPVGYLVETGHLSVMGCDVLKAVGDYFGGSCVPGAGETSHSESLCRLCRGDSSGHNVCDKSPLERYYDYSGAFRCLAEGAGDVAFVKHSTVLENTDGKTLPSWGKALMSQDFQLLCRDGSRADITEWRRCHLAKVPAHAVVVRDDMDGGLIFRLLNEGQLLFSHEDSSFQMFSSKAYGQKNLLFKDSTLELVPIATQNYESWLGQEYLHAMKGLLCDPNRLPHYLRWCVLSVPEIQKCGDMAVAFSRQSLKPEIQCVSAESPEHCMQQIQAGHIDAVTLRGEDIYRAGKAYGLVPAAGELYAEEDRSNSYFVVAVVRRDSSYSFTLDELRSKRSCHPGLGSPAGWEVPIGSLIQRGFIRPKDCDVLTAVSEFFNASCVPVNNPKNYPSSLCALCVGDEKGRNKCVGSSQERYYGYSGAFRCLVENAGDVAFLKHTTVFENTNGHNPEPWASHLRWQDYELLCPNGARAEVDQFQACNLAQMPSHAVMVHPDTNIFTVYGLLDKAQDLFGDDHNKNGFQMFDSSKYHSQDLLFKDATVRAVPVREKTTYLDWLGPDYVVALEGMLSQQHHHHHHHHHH

B1: CA149 (antibody, human IgG1, kappa, V domains shown)
VH: EVQLVESGGGVVQPGRSLRLSCAASGFTFSSYAMHWVRQAPGKGLEWVAVISFDGSNKYYTDSVKGRFTISRDNSKNTLYLQMNSLRAEDTAVYYCAREVPYYYGSGPFDYWGQGTLVTVSS
VL: EIVLTQSPATLSVSPGERATLSCRASQSVSSNLAWYQQKPGQAPRHLIDGASSRASGIPDRFSGSGSGTDFTLTISRLEPEDFAVYYCQQYGSSPPFTFGPGTKVDIKR
notes: Intact IgG1; also called CA149 antibody
B2: CA185 (antibody, human IgG1, kappa, V domains shown)
VH: B1 VH with F53Y, T61A
VL: EIVLTQSPGTLSLSPGERATLSCRASQSVSSSSLAWYQQKPGQAPRHLIDGASSRASGIPDRFSGSGSGTDFTLTISRLEPEDFAVYYCQQYGSSYTFGQGTKVDIKR
notes: Intact IgG1
B3: CA13 (antibody, human IgG1, kappa, V domains shown)
VH: EVQLVESGGGVVQPGRSLRLSCAASGFTFSSYAMHWVRQAPGKGLEWVAVISYDGSNKYYADSVKGRFTISRDNSKNTLFLQMNSLRAEDTAVYYCARDVYHYGSRSPYYYGMDVWGQGTTVTVSS
VL: DIVMTQSPSSLSASVGDRVTITCRASQGISNYLAWFQQKPGKVPKLLIYAASTLQSGVPSRFSGSGSGTDFTLTISSLQPEDVATYYCQKYNSAPFTFGPGTKVDIKR
notes: Intact IgG1 from fully human antibody-transgenic mice
B4: CA518 (antibody, human IgG1, kappa, V domains shown)
VH: B3 VH with Y60H, A97V
VL: B3 VL with V3Q, L11V, N31S, Y32W, F36Y, V43A, T53S
notes: Intact IgG1
B5: CA67 (antibody, human IgG1, kappa, V domains shown)
VH: B3 VH with F80Y
VL: B3 VL with V3Q, G28A, F36Y, Q55H, S56P
notes: Intact IgG1
B6: BA352 (antibody, human IgG1, kappa, V domains shown)
VH: EVQLVESGGGVVQPGRSLRLSCAASGFTFSSYAMHWVRQAPGKGLEWVAVISYDGSNKYYADSVKGRFTISRDNSKNTLYLQMNSLRAEDTAVYYCARGPYLAAAGTALTFDIWGQGTMVTVSS
VL: DIQMTQSPSAMSASVGDRVTITCRASQGINNYLAWFQQKPGKVPKRLIYAASSLQSGVPSRFSGSGSGTEFTLTISSLQPEDFATYYCLQHNSYPFTFGPGTKVDIKR
notes: Intact IgG1
B7: reference antibody hL49 (antibody, human IgG1, kappa, V domains shown)
VH: QVQLQESGPGLVKPSETLSLTCTVSGDSITSGYWNWIRQPPGKGLEYIGYISDSGITYYNPSLKSRVTISRDTSKNQYSLKLSSVTAADTAVYYCARRTLATYYAMDYWGQGTLVTVSS
VL: DFVMTQSPLSLPVTLGQPASISCRASQSLVHSDGNTYLHWYQQRPGQSPRLLIYRVSNRFSGVPDRFSGSGSGTDFTLKISRVEAEDVGVYYCSQSTHVPPTFGQGTKLEIKR
notes: also called H149; hL49 analogy

Target: T1, Human CD228 protein
Experiment: Octet competition on His-chip CD228; competitor: CA13
Experimental: (§1) CD228 proteins were immobilized on His chips at 10 μg/mL with a threshold of 0.5 nm. The first CD228 antibody (30 μg/mL) was immobilized, and the competitive binding of the second CD228 antibody (30 μg/mL) was analyzed. The Octet 8K system was used to analyze the response of antibody 2 and to determine whether antibody 1 and antibody 2 were in competition.
(§2) The final competition analysis was conducted using the following calculation method: 1—response value/blank value.

First: B1
Second: B2
The “competition (1-response value/blank value)” value of the first is lower: 97% for the first, 99% for the second.

Going from B3 to B4, the “competition (1-response value/blank value)” value falls from 100% to 98%.

Compared with B5, B6 is lower in “competition (1-response value/blank value)” value: 102% for the first, -8% for the second.

For B7, the “competition (1-response value/blank value)” value was -6%.

Target: T1, Human CD228 protein
Experiment: Octet competition on His-chip CD228; competitor: CA149
Experimental: as §1, §2

First: B1
Second: B2
The “competition (1-response value/blank value)” value of the first is higher: 99% for the first, 98% for the second.

B3 and B4 are the same in “competition (1-response value/blank value)” value: 101% for the first, 101% for the second.

Going from B5 to B6, the “competition (1-response value/blank value)” value falls from 103% to -2%.

In the case of B7, the “competition (1-response value/blank value)” value is reported as -6%.

Target: T2, Mouse CD228 protein
Experiment: SPR, BIAcore 8K; antibody on ProA chip, CD228 protein as analyte
Experimental: The binding kinetics of the antibodies to the CD228 proteins was measured using the BIAcore 8K system based on surface plasmon resonance (SRP). CD228 antibodies were immobilized on ProA chips at a concentration of 2 μg/mL, and the binding activity of the CD228 antibodies to human, monkey, and mouse CD228 proteins was analyzed. Human, monkey and mouse CD228 proteins were serially 2-fold diluted from 50 nM to 5 concentrations with an HBS-EP+ buffer. The binding kinetics of the CD228 proteins were analyzed by Biacore, and the affinity activity KD values were calculated by fitting.

B1: no binding.
B2: no binding.
B3: no binding.
B4: no binding.
B5: no binding.
B6: no binding.
B7: no binding.

Target: T1, Human CD228 protein
Experiment: Octet competition on His-chip CD228; competitor: hl49
Experimental: as §1, §2

Going from B1 to B2, the “competition (1-response value/blank value)” value falls from 0% to -3%.

First: B3
Second: B4
The “competition (1-response value/blank value)” value of the first is lower: -2% for the first, 19% for the second.

Compared with B5, B6 is higher in “competition (1-response value/blank value)” value: 5% for the first, 100% for the second.

For B7, the “competition (1-response value/blank value)” value was 95%.

Source: US20250121082A1 (SHANDONG BOAN BIOTECHNOLOGY, published 2025)
